The values below come from patent US20220406376A1 (MacroGenics, published 2022).

The target of assay [1] is T1, extracellular portion of human CD137 fused to a histidine-containing peptide (human, UniProt Q07011 24-186).
T1 construct: extracellular domain; also called huCD137; His-tagged soluble human CD137
Description: Attana Cell A200 QCM; antibody captured by anti-human IgG Fc; soluble human CD137-His; grade relative to (1B.3); row with VL12.

Assay [2] concerns the target T1, extracellular portion of human CD137 …. Description: SPR (BIACORE), against chCD137 MAB-4. The procedure: (§1) Thus, an extracellular portion of human CD137 fused to a histidine-containing peptide (“huCD137”) was passed over a surface coated with immobilized antibody. Briefly, each test molecule was captured onto an F(ab)₂ goat-anti-human Fc-coated surface and then incubated in the presence of different concentrations (25 nM and 100 nM) of huCD137. The kinetics of binding were determined via BIACORE® analysis binding (normalized 1:1 Langmuir binding model).

The target is the same in assay [3]. Description: SPR (BIACORE); antibody captured on anti-human Fc; huCD137 25 and 100 nM; 1:1 Langmuir. The procedure:
as §1

B1: hCD137 MAB-3 VH1B with VL12 (I48A/S52T) (antibody, V domains shown)
VH: QVQLVQSGAEVKKPGASVKVSCKASGYTFTSYWINWVKQAPGQGLEWIGNIYPSDSYTNYNQKFKDKATITADKSTSTAYMELSSLRSEDTAVYYCTRDYGSAYSMSTWGQGTTVTVSS
VL: DIQMTQSPSSLSASVGDRVTITCRPSQDISNYLNWYQQKPDKTVKLLAYYTTRLRSGVPSRFSGSGSGTDFTFTISSLQPEDIATYFCQQGDTLPYTFGQGTKLEIK
As to B1, in assay [1], the binding result is “binds”.

B2: hCD137 MAB-4 (1.1) (antibody, V domains shown)
VH: QVQLVQSGAEVKKPGASVKVSCKASGYTFTSYWINWVRQAPGQGLEWMGNIYPSDSYTNYDQKFKDRVTMTRDTSTSTVYMELSSLRSEDTAVYYCTKSGEYGKIGYYAMDYWGQGTTVTVSS
VL: DIQMTQSPSSLSASVGDRVTITCRASQDISNYLNWYQQKPDKTVKLLIYYTSRLHSGVPSRFSGSGSGTDYTLTISSLQPEDIATYFCQQGNTLPYTFGQGTKLEIK
notes: also called chCD137 MAB-4 (1.1)
As a reminder, the Kd is the constant that tells how readily two partners part at equilibrium. The term koff denotes the rate constant with which the complex falls apart. A low value points to slow dissociation. In general, kon refers to a measure of how fast the partners come together. High values mean faster complex formation, low ones slower complex formation. Regarding B2, the “fold decrease in binding affinity relative to the murine antibodies” value in assay [2] is about 2 fold. In assay [3], this molecule gave a Kd of 16.2 nM, a koff of 0.0021 s⁻¹ and an on-rate (kon) of 130000 M⁻¹ s⁻¹.

B3: hCD137 MAB-4 (1.2) (antibody, V domains shown)
VH: QVQLVQSGAEVKKPGASVKVSCKASGYTFTSYWINWVRQAPGQGLEWMGNIYPSDSYTNYDQKFKDRVTMTRDTSTSTVYMELSSLRSEDTAVYYCTKSGEYGKIGYYAMDYWGQGTTVTVSS
VL: DIQMTQSPSSLSASVGDRVTITCRASQDISNYLNWYQQKPDKTVKLLIYYTSRLHSGVPSRFSGSGSGTDYTLTISSLQPEDIATYYCQQGNTLPYTFGQGTKLEIK
notes: also called chCD137 MAB-4 (1.2)
Turning to B3, the “fold decrease in binding affinity relative to the murine antibodies” value in assay [2] is about 2 fold. Besides, in assay [3], the equilibrium dissociation constant (Kd) was found to be 13.6 nM, the koff was 0.0019 s⁻¹ and the kon amounted to 140000 M⁻¹ s⁻¹.
